Measurements reported in patent publication US12065471B2, “B*44 restricted peptides for use in immunotherapy against cancers and related methods” (Immatics Biotechnologies GmbH, priority 2018, dated 2024).

Target: HLA-B*44:05 (Homo sapiens, UniProt P01889, A223V/A65T/A93T/A95T/D201E/D98Y/E176V/E187L/E204Q/E69K/G107R/H137Y/K202T/L105A/L119I/N104T/N87E/Q56L/Q94N/R106L/R155S/R180D/S101N/S121R/S35A/S48T/T118I/V36M/W191S/Y91S)
Test: MHC binding assay (UV-ligand exchange, β2m ELISA, peptide exchange yield)
Conditions: binding to HLA-B*44:05
Procedure, shortened: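 Peptide–HLA complexes formed by UV-ligand exchange of a UV-cleavable peptide for the test peptide. Exchange yield measured by β2m ELISA: complexes diluted 100-fold and captured on streptavidin, detected with HRP anti-β2m and TMB, read at 450 nm. Quantified against refolded HLA-A*02:01/MLA-001 monomer standards, 15-500 ng/ml.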

| Substance | Peptide exchange (MHC class I binding score, peptide exchange yield) |
| --- | --- |
| 413 (TELEPGLTY; listed as Homo sapiens) [compound 413] | +++ (>50 = +++) |
| 226 (AEDNMVTSY; listed as Homo sapiens) [compound 226] | +++ (>50 = +++) |
| 219 (WEVEVGDRTDW; listed as Homo sapiens) [compound 219] | +++ (>50 = +++) |
| 299 (AEVQIARKL; listed as Homo sapiens) [compound 299] | +++ (>50 = +++) |
| 375 (HEATFGEKRF; listed as Homo sapiens) [compound 375] | +++ (>50 = +++) |
| 454 (SESSSAFQF; listed as Homo sapiens) [compound 454] | +++ (>50 = +++) |
| 335 (SETPTLQGL; listed as Homo sapiens) [compound 335] | +++ (>50 = +++) |
| 131 (RESHLTEIRQY; listed as Homo sapiens) [compound 131] | ++ (>20% = ++) |
| 434 (AEQQQQQMY; listed as Homo sapiens) [compound 434] | +++ (>50 = +++) |
| 427 (AEMLGSVVGNW; listed as Homo sapiens) [compound 427] | +++ (>50 = +++) |
| 208 (SEFLLRIF; listed as Homo sapiens) [compound 208] | ++ (>20% = ++) |
| 452 (NEVDGEYRY; listed as Homo sapiens) [compound 452] | +++ (>50 = +++) |
| 389 (DEQRRQNVAY; listed as Homo sapiens) [compound 389] | ++ (>20% = ++) |
| 148 (KESDAGRYY; listed as Homo sapiens) [compound 148] | +++ (>50 = +++) |
| 392 (TEVSVLLLTF; listed as Homo sapiens) [compound 392] | +++ (>50 = +++) |
| 448 (ALSPVPSHW; listed as Homo sapiens) [compound 448] | +++ (>50 = +++) |
| 352 (QEDELVKIRKY; listed as Homo sapiens) [compound 352] | +++ (>50 = +++) |
| 136 (EEMPEEIHL; listed as Homo sapiens) [compound 136] | +++ (>50 = +++) |
| 292 (HELALRQTV; listed as Homo sapiens) [compound 292] | ++++ (>75% = ++++) |
| 184 (EEQLLQKVM; listed as Homo sapiens) [compound 184] | ++++ (>75% = ++++) |
| 318 (SESSSFLKV; listed as Homo sapiens) [compound 318] | +++ (>50 = +++) |
| 313 (EEINQGGRKY; listed as Homo sapiens) [compound 313] | +++ (>50 = +++) |
| 398 (AEIIRYIF; listed as Homo sapiens) [compound 398] | + (>10% = +) |

| Substance | Peptide exchange (MHC class I binding score, peptide exchange yield) |
| --- | --- |
| 320 (AENPLNIFY; listed as Homo sapiens) [compound 320] | ++++ (>75% = ++++) |
| 370 (EEVLLANALW; listed as Homo sapiens) [compound 370] | +++ (>50 = +++) |
| 249 (YEMAIYKKY; listed as Homo sapiens) [compound 249] | ++++ (>75% = ++++) |
| 112 (AEIEADRSYQH; listed as Homo sapiens) [compound 112] | +++ (>50 = +++) |
| 399 (IEQADWPEI; listed as Homo sapiens) [compound 399] | ++ (>20% = ++) |
| 279 (GEPVTQPGSLL; listed as Homo sapiens) [compound 279] | +++ (>50 = +++) |
| 172 (RENPGMFSW; listed as Homo sapiens) [compound 172] | +++ (>50 = +++) |
| 383 (EEMERDLDMY; listed as Homo sapiens) [compound 383] | +++ (>50 = +++) |
| 277 (VEFPATRSL; listed as Homo sapiens) [compound 277] | +++ (>50 = +++) |
| 195 (MEIKGTVTEF; listed as Homo sapiens) [compound 195] | +++ (>50 = +++) |
| 345 (AEYQAAILHL; listed as Homo sapiens) [compound 345] | +++ (>50 = +++) |
| 34 (AEPPILYSEY; listed as Homo sapiens) [compound 34] | ++ (>20% = ++) |
| 258 (IEVSSPITL; listed as Homo sapiens) [compound 258] | ++++ (>75% = ++++) |
| 89 (KEFYPVKEF; listed as Homo sapiens) [compound 89] | ++ (>20% = ++) |
| 265 (EDNLIHKF; listed as Homo sapiens) [compound 265] | ++ (>20% = ++) |
| 218 (REAEEKEAQL; listed as Homo sapiens) [compound 218] | +++ (>50 = +++) |
| 243 (VEQINISQDW; listed as Homo sapiens) [compound 243] | ++++ (>75% = ++++) |
| 132 (AESFTSGRHYW; listed as Homo sapiens) [compound 132] | ++++ (>75% = ++++) |
| 99 (SECVKSLSF; listed as Homo sapiens) [compound 99] | ++++ (>75% = ++++) |
| 321 (AENPLNIFYI; listed as Homo sapiens) [compound 321] | +++ (>50 = +++) |
| 262 (YENILNAI; listed as Homo sapiens) [compound 262] | ++ (>20% = ++) |
| 391 (TESIGAQIY; listed as Homo sapiens) [compound 391] | +++ (>50 = +++) |
| 221 (KEAFGPQAL; listed as Homo sapiens) [compound 221] | ++++ (>75% = ++++) |
